Assay results reported in paper doi:10.1101/2025.07.09.663943, “A multiplex extracellular interactome screening method employing high-avidity nanoparticles” (bioRxiv, 2025).

Legend:
Experiment in all cases: Multiplex Interactome Assay (MPIA; bead-based, Luminex FLEXMAP 3D); runs D1-D4; baits ECD-hFc-ST3 on dimeric SC3 (SpyCatcher003-Cys) MagPlex beads, pooled; one prey a well: ECD-hFc-ST3 on 60-mer SC3-mi3 nanoparticles with GFP-V5-HA-ST3 adapter, 300 nM ECD where possible; 2 h at room temperature, 1% casein in 1x PBS; mouse anti-V5 and PE goat anti-mouse; read-out MFI; hit = seen in three of four runs
PVR ECD-hFc-ST3 (human) = PVR ECD-hFc-ST3 (human) (UniProt P15151)
Chain of PVR ECD-hFc-ST3 (human) (P15151 21-343): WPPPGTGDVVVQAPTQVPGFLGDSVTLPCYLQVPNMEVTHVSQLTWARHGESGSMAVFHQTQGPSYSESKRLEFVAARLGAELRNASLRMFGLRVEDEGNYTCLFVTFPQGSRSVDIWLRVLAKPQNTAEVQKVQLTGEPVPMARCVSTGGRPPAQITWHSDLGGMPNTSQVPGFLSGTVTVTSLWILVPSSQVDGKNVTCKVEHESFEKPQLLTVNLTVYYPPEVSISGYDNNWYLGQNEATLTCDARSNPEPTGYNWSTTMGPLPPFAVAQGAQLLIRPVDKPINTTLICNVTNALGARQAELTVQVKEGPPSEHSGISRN

WFIKKN2-hFc-ST3 (human) = WFIKKN2-hFc-ST3 (human) (UniProt Q8TEU8)
IGFBPL1-hFc-ST3 = molecular target: T1, IGFBPL1-hFc-ST3 (human, UniProt Q8WX77 26-278); conditions: both partners purified
T1 construct: Dimeric hFc-ST3 fusion behind the influenza HA signal peptide; prey on SC3-mi3 nanoparticles, bait on SC3 beads; source: Expi293, transfected, purified from supernatant (Ni-NTA / HisTrapFF); not shown: Fc (human IgG1, DAPA mutations), C-terminal, kept; FLAG, C-terminal, kept; SpyTag003, C-terminal, kept
T1 sequence (looked up): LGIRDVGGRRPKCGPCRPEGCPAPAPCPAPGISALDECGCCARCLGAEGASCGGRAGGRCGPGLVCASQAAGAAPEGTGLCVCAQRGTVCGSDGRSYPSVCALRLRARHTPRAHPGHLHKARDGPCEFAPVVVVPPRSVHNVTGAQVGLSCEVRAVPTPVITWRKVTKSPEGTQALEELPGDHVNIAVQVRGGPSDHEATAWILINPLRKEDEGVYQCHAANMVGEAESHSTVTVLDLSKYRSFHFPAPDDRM

IL6R ECD-hFc-ST3 = molecular target: T2, IL6R ECD-hFc-ST3 (human, UniProt P08887 20-365); conditions: both partners purified
T2 construct: IL6R (interleukin-6 receptor subunit alpha), human, extracellular domain; Dimeric ECD-hFc-ST3 fusion behind the influenza HA signal peptide; prey on SC3-mi3 nanoparticles, bait on SC3 beads; source: Expi293, transfected, purified from supernatant (Ni-NTA / HisTrapFF); not shown: Fc (human IgG1, DAPA mutations), C-terminal, kept; FLAG, C-terminal, kept; SpyTag003, C-terminal, kept
T2 sequence (looked up): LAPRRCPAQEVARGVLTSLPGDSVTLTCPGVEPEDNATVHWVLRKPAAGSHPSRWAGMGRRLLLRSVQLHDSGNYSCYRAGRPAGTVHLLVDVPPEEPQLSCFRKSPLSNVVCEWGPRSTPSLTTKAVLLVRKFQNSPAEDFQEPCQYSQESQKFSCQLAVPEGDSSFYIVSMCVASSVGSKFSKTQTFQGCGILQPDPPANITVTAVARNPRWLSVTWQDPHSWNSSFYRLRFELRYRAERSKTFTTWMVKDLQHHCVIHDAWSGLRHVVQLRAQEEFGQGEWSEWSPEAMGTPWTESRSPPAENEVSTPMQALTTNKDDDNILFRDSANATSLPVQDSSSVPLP

[1] = molecular target: PuncE11 ECD-hFc-ST3 (human) (UniProt Q8TDY8)
AXL ECD-hFc-ST3 = molecular target: T3, AXL ECD-hFc-ST3 (human, UniProt P30530 26-451); conditions: both partners purified
T3 construct: AXL (tyrosine-protein kinase receptor UFO), human, extracellular domain; Dimeric ECD-hFc-ST3 fusion behind the influenza HA signal peptide; prey on SC3-mi3 nanoparticles, bait on SC3 beads; source: Expi293, transfected, purified from supernatant (Ni-NTA / HisTrapFF); not shown: Fc (human IgG1, DAPA mutations), C-terminal, kept; FLAG, C-terminal, kept; SpyTag003, C-terminal, kept
T3 sequence (looked up): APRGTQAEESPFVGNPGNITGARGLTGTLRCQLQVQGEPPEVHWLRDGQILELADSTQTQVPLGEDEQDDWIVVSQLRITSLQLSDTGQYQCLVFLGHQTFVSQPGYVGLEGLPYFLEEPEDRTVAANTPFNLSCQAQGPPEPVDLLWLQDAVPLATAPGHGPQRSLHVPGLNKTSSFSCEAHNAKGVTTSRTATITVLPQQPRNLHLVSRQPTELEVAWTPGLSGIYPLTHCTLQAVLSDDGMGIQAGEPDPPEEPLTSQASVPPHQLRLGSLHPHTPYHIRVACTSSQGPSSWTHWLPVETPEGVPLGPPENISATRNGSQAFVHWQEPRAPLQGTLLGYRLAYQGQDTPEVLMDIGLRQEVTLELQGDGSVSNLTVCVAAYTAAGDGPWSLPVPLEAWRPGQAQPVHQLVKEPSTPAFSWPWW

KIR2DL5 ECD-hFc-ST3 (from UniProt Q8N109 22-238) (Fc fusion)
MFI (PVR ECD-hFc-ST3 (human)): 5360

PuncE11 ECD-hFc-ST3 (from UniProt Q8TDY8 25-957) (Fc fusion)
MFI (WFIKKN2-hFc-ST3 (human)): > 7000

B1: DCC ECD-hFc-ST3 (Fc fusion, human, UniProt P43146 26-1097, looked up)
chain: HLQVTGFQIKAFTALRFLSEPSDAVTMRGGNVLLDCSAESDRGVPVIKWKKDGIHLALGMDERKQQLSNGSLLIQNILHSRHHKPDEGLYQCEASLGDSGSIISRTAKVAVAGPLRFLSQTESVTAFMGDTVLLKCEVIGEPMPTIHWQKNQQDLTPIPGDSRVVVLPSGALQISRLQPGDIGIYRCSARNPASSRTGNEAEVRILSDPGLHRQLYFLQRPSNVVAIEGKDAVLECCVSGYPPPSFTWLRGEEVIQLRSKKYSLLGGSNLLISNVTDDDSGMYTCVVTYKNENISASAELTVLVPPWFLNHPSNLYAYESMDIEFECTVSGKPVPTVNWMKNGDVVIPSDYFQIVGGSNLRILGVVKSDEGFYQCVAENEAGNAQTSAQLIVPKPAIPSSSVLPSAPRDVVPVLVSSRFVRLSWRPPAEAKGNIQTFTVFFSREGDNRERALNTTQPGSLQLTVGNLKPEAMYTFRVVAYNEWGPGESSQPIKVATQPELQVPGPVENLQAVSTSPTSILITWEPPAYANGPVQGYRLFCTEVSTGKEQNIEVDGLSYKLEGLKKFTEYSLRFLAYNRYGPGVSTDDITVVTLSDVPSAPPQNVSLEVVNSRSIKVSWLPPPSGTQNGFITGYKIRHRKTTRRGEMETLEPNNLWYLFTGLEKGSQYSFQVSAMTVNGTGPPSNWYTAETPENDLDESQVPDQPSSLHVRPQTNCIIMSWTPPLNPNIVVRGYIIGYGVGSPYAETVRVDSKQRYYSIERLESSSHYVISLKAFNNAGEGVPLYESATTRSITDPTDPVDYYPLLDDFPTSVPDLSTPMLPPVGVQAVALTHDAVRVSWADNSVPKNQKTSEVRLYTVRWRTSFSASAKYKSEDTTSLSYTATGLKPNTMYEFSVMVTKNRRSSTWSMTAHATTYEAAPTSAPKDLTVITREGKPRAVIVSWQPPLEANGKITAYILFYTLDKNIPIDDWIMETISGDRLTHQIMDLNLDTMYYFRIQARNSKGVGPLSDPILFRTLKVEHPDKMANDQGRHGDGGYWPVDTNLIDRSTLNEPPIGQMHPPHGSVTPQKNSN
notes: DCC (netrin receptor DCC), human, extracellular domain; Dimeric ECD-hFc-ST3 fusion behind the influenza HA signal peptide; prey on SC3-mi3 nanoparticles, bait on SC3 beads; source: Expi293, transfected, purified from supernatant (Ni-NTA / HisTrapFF); not shown: Fc (human IgG1, DAPA mutations), C-terminal, kept; FLAG, C-terminal, kept; SpyTag003, C-terminal, kept
MFI (IGFBPL1-hFc-ST3): > 7000

B2: TIGIT ECD-hFc-ST3 (Fc fusion, human, UniProt Q495A1 22-141, looked up)
chain: MMTGTIETTGNISAEKGGSIILQCHLSSTTAQVTQVNWEQQDQLLAICNADLGWHISPSFKDRVAPGPGLGLTLQSLTVNDTGEYFCIYHTYPDGTYTGRIFLEVLESSVAEHGARFQIP
notes: TIGIT, human, extracellular domain; Dimeric ECD-hFc-ST3 fusion behind the influenza HA signal peptide; prey on SC3-mi3 nanoparticles, bait on SC3 beads; source: Expi293, transfected, purified from supernatant (Ni-NTA / HisTrapFF); not shown: Fc (human IgG1, DAPA mutations), C-terminal, kept; FLAG, C-terminal, kept; SpyTag003, C-terminal, kept
binding result (IL6R ECD-hFc-ST3): binds

B3: WFIKKN2-hFc-ST3 (Fc fusion)
chain: LPPIRYSHAGICPNDMNPNLWVDAQSTCRRECETDQECETYEKCCPNVCGTKSCVAARYMDVKGKKGPVGMPKEATCDHFMCLQQGSECDIWDGQPVCKCKDRCEKEPSFTCASDGLTYYNRCYMDAEACSKGITLAVVTCRYHFTWPNTSPPPPETTMHPTTASPETPELDMAAPALLNNPVHQSVTMGETVSFLCDVVGRPRPEITWEKQLEDRENVVMRPNHVRGNVVVTNIAQLVIYNAQLQDAGIYTCTARNVAGVLRADFPLSVVRGHQAAATSESSPNGTAFPAAECLKPPDSEDCGEEQTRWHFDAQANNCLTFTFGHCHRNLNHFETYEACMLACMSGPLAACSLPALQGPCKAYAPRWAYNSQTGQCQSFVYGGCEGNGNNFESREACEESCPFPRGNQRCRACKPRQKLVTSFCRSDFVILGRVSELTEEPDSGRALVTVDEVLKDEKMGLKFLGQEPLEVTLLHVDWACPCPNVTVSEMPLIIMGEVDGGMAMLRPDSFVGASSARRVRKLREVMHKKTCDVLKEFLGLH
MFI [1]: > 7000

B4: ILRL1 ECD-hFc-ST3 (Fc fusion, human, UniProt Q01638 19-328, looked up)
chain: KFSKQSWGLENEALIVRCPRQGKPSYTVDWYYSQTNKSIPTQERNRVFASGQLLKFLPAAVADSGIYTCIVRSPTFNRTGYANVTIYKKQSDCNVPDYLMYSTVSGSEKNSKIYCPTIDLYNWTAPLEWFKNCQALQGSRYRAHKSFLVIDNVMTEDAGDYTCKFIHNENGANYSVTATRSFTVKDEQGFSLFPVIGAPAQNEIKEVEIGKNANLTCSACFGKGTQFLAAVLWQLNGTKITDFGEPRIQQEEGQNQSFSNGLACLDMVLRIADVKEEDLLLQYDCLALNLHGLRRHTVRLSRKNPIDHHS
notes: The label ILRL1 is printed once only; Dimeric ECD-hFc-ST3 fusion behind the influenza HA signal peptide; prey on SC3-mi3 nanoparticles, bait on SC3 beads; source: Expi293, transfected, purified from supernatant (Ni-NTA / HisTrapFF); not shown: Fc (human IgG1, DAPA mutations), C-terminal, kept; FLAG, C-terminal, kept; SpyTag003, C-terminal, kept
MFI (AXL ECD-hFc-ST3): 5780
